Article PMC8539640

Columns and labels:
[1] = biological target: Bam35 P19t (P19 without its predicted transmembrane domain), bait pBN_19t (Bacillus virus Bam35); experiment: two-hybrid
[2] = biological target: Bam35 P22 (special vertex, suggested), bait pBN_22 (Bacillus virus Bam35); experiment: two-hybrid; pairwise Y2H: Bam35 ORF baits (pBC or pBN) against full-length HER1410 ORF preys (pPC or pPN); HIS3 reporter, -LWH with 0, 0.025, 0.1, 3, 10, 25, 50 and 100 mM 3AT; positive when growth was higher than in the self-activation controls with the empty vectors
[3] = biological target: Bam35 P26 (transglycosylase and integral membrane scaffolding, suggested), bait pBN_26 (Bacillus virus Bam35); experiment: two-hybrid

**Q.** With “B. thuringiensis HER1410 OmpR, full length, prey pPC_ompR(22050) (natural protein)” as the substance, how does the other [1] read?
**A.** The other was 100 mM.

**Q.** Which Max. 3AT (mM) (B35ORF BtORF) [2] does the source give for “B. thuringiensis HER1410 YadS, full length, prey pPC_yadS(28175) (natural protein)” here?
**A.** The Max. 3AT (mM) (B35ORF BtORF) was 50 mM.

**Q.** How did the Max. 3AT (mM) (B35ORF BtORF) [3] turn out when “B. thuringiensis HER1410 protein of locus 16200, full length, prey pPC_(16200) (natural protein)” was run?
**A.** Its Max. 3AT (mM) (B35ORF BtORF) is 3 mM.
